In assay [1] the target is HA of A/New Caledonia/20/1999 (influenza A virus A/New Caledonia/20/1999) (UniProt Q6WG00).
Assay [2] deals with HA of A/Puerto Rico/8/1934 (influenza A virus A/Puerto Rico/8/1934) (UniProt P03452).
For assay [3], the target named is C05 V110P (human). Briefly: BLI. (In general: BLI is a label-free optical method that tracks binding on a fibre tip over time.)

Our source for the HAI, antibody concentration and Kd values is PMC6358683.

For C05 V110P (antibody), the HAI, antibody concentration at the endpoint titer; virus A/New Caledonia/20/1999 in assay [1] is 0.2 µg/mL.

In the case of C05 V110P-A117E (antibody), the HAI, antibody concentration at the endpoint titer; virus A/Puerto Rico/8/1934 in assay [2] is > 100 µg/mL. This substance had an HAI, antibody concentration at the endpoint titer; virus A/New Caledonia/20/1999 in assay [1] of 0.2 µg/mL.

A word on the Kd: it is the concentration at which binding is half-saturated. The low end stands for a tighter complex, the high end for a looser complex. On to “HA of A/Puerto Rico/8/1934 (from UniProt P03452) (natural protein)”, for which the Kd in assay [3] was found to be 2.3 µM. That is a single-digit micromolar value.
